Results taken from patent publication US20260232827A1 (Zymeworks, published 2026).
Like-named read-outs stand apart in the source and are kept apart here.

Assays:
[1] = molecular target: T1, human sodium-dependent phosphate transporter 2B (NaPi2b) (human, UniProt O95436 1-690); test: flow cytometry on HEK293-6e cells transfected with human NaPi2b
T1 construct: Endogenous on tumor cell lines (IGROV-1, OVCAR-3, HCC-78, TOV-21G, NCI-H441) or transfected into HEK293-6e cells with pTT5-huNaPi2b (CL_#13432); also called Hu NaPi2b; hNaPi2b
T1 sequence: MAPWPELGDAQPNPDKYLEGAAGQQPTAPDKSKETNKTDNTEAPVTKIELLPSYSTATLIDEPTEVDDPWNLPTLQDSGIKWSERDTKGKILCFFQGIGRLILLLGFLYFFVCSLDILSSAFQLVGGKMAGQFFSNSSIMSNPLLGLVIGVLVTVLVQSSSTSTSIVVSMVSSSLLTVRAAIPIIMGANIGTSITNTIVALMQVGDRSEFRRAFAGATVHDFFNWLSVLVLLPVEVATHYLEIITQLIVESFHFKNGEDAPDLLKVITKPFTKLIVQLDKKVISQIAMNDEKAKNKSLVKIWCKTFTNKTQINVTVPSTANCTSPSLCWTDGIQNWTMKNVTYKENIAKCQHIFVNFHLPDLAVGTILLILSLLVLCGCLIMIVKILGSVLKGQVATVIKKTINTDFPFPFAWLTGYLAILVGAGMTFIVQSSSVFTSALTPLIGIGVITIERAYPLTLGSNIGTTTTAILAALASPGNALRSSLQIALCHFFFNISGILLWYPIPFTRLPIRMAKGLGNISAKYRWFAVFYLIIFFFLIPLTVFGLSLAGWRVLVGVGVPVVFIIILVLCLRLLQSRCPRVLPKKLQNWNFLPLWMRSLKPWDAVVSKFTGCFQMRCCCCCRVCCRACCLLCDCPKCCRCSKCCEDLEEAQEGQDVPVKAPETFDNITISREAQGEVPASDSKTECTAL
Experimental: (§1) Following transfection, cells were seeded at 50,000 cells/well in conical-bottom 96-well plates and treated with test antibody or antibody-drug conjugate for 24 hours at 4° C. to prevent internalization. […] Following incubation and washing, fluorescence was detected by flow cytometry on a BD LSRFortessa™ Cell Analyzer (BD Biosciences, Franklin Lake, NJ) with 1,000 minimum events collected per well.

mouse NaPi2b [2] = molecular target: T2, mouse NaPi2b (mouse, UniProt Q9DBP0 1-697); test: flow cytometry on HEK293-6e cells transfected with mouse NaPi2b, apparent Kd
T2 construct: Transfected into HEK293-6e cells (clone CL_#13476); also called Ms NaPi2b
T2 sequence: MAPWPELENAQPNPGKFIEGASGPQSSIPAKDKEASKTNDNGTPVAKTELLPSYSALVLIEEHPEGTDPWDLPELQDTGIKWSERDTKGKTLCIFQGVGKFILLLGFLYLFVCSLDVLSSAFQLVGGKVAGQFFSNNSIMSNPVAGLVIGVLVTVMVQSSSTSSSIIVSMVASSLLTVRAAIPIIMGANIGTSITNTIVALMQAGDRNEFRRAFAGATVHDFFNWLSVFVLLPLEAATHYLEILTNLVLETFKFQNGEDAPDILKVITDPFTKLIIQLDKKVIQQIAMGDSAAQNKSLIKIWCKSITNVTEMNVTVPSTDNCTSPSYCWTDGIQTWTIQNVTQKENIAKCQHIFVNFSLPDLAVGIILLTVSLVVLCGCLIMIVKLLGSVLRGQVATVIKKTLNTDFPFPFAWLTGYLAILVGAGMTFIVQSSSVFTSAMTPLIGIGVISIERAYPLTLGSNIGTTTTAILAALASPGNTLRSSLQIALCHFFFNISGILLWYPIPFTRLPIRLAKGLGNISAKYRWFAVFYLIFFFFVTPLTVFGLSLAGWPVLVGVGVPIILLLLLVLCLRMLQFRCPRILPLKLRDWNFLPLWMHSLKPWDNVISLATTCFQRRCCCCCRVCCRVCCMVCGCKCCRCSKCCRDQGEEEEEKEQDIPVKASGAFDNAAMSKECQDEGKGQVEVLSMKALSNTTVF
Experimental: as §1

mouse NaPi2b [3] = molecular target: T2, mouse NaPi2b; test: flow cytometry on HEK293-6e cells transfected with mouse NaPi2b
Experimental: as §1

[4] = molecular target: T1, human sodium-dependent phosphate …; test: flow cytometry on IGROV-1 cells, 24 h at 4 C, anti-human IgG Fc AF647
Experimental: (§2) Following incubation and washing, fluorescence was detected by flow cytometry on a BD LSRFortessa™ Cell Analyzer (BD Biosciences, Franklin Lake, NJ) with 1,000 minimum events collected per well.

[5] = molecular target: T1, human sodium-dependent phosphate …; test: flow cytometry on OVCAR-3 cells, 24 h at 4 C, anti-human IgG Fc AF647
Experimental: as §2

cynomolgus monkey NaPi2b [6] = molecular target: T3, cynomolgus monkey NaPi2b (cynomolgus monkey, UniProt O95436 1-690 (human entry)); test: flow cytometry on HEK293-6e cells transfected with cynomolgus NaPi2b, apparent Kd
T3 construct: Transfected into HEK293-6e cells (clone CL_#13433); also called Cy NaPi2b; Cyno NaPi2b
T3 chain: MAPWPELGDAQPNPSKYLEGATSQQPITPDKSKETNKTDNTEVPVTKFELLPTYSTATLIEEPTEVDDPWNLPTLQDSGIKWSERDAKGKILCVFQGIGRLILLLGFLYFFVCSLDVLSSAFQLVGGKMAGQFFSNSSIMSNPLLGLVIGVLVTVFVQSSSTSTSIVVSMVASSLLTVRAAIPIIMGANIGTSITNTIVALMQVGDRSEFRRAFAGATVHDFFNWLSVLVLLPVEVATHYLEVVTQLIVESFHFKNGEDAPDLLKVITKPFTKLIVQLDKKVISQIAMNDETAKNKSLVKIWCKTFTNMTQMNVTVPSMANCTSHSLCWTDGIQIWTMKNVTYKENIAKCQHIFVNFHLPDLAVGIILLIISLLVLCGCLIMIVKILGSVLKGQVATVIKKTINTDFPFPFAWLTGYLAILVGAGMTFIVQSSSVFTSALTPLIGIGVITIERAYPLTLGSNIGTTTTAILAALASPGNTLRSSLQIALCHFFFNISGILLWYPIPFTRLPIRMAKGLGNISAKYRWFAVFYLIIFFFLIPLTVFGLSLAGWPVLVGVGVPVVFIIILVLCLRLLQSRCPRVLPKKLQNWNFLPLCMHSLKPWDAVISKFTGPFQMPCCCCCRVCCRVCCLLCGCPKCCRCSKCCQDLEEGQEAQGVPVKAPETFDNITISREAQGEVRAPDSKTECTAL
Experimental: as §1

cynomolgus monkey NaPi2b [7] = molecular target: T3, cynomolgus monkey NaPi2b; test: flow cytometry on HEK293-6e cells transfected with cynomolgus NaPi2b
Experimental: as §1

[8] = molecular target: T1, human sodium-dependent phosphate …; test: flow cytometry on HEK293-6e cells transfected with human NaPi2b; remark: listed apart in the source
Experimental: as §1

[9] = molecular target: T1, human sodium-dependent phosphate …; test: cell-based or functional assay
[10] = molecular target: T1, human sodium-dependent phosphate …; test: cell-based or functional assay; remark: listed apart in the source
[11] = molecular target: T1, human sodium-dependent phosphate …; test: cell-based or functional assay; remark: listed apart in the source
[12] = molecular target: T1, human sodium-dependent phosphate …; test: cell-based or functional assay; remark: listed apart in the source
[13] = molecular target: T1, human sodium-dependent phosphate …; test: cell-based or functional assay; remark: listed apart in the source

B1: v38591-MC-GGFG-AM-Compound 139 DAR 8 (antibody, human IgG1, kappa)
heavy: not shown
light: DVQMTQSPSSLSASVGDRVTITCRASQDVYSYLNWYQQKPGKAVKLLIYYTSRLQSGVPSRFSGSGSGTDYTLTISSLQPEDFATYYCQQYNIFPWTFGQGTKLEIKRTVAAPSVFIFPPSDEQLKSGTASVVCLLNNFYPREAKVQWKVDNALQSGNSQESVTEQDSKDSTYSLSSTLTLSKADYEKHKVYACEVTHQGLSSPVTKSFNRGEC
modifications: drug-linker MC-GGFG-AM-Compound 139 on cysteine thiols after TCEP reduction, positions not given; DAR 8 for the whole antibody
notes: Antibody-drug conjugate of v38591 (IgG1/kappa); also called v38593
For B1, the Bmax [1] was 1530, the Kd (mouse NaPi2b [2]) was 0.64 nM and the Bmax (mouse NaPi2b [3]) was 396. The Bmax [4] was 20500, the Kd [4] was 1.6 nM and the Bmax [5] was 14300. The Kd [5] was 2.71 nM, the Kd (cynomolgus monkey NaPi2b [6]) was 0.47 nM and the Bmax (cynomolgus monkey NaPi2b [7]) was 408. For the same binder, the Bmax [8] was 1530, the “Internalized Fluorescence in OVCAR-3, 15 min, 100 nM” value [9] was 7380 and the “Internalized Fluorescence in OVCAR-3, 4 hr, 100 nM” value [9] was 15600. For the same binder, the “Internalized Fluorescence in OVCAR-3, 16 hr, 100 nM” value [9] was 16800 and the “Internalized Fluorescence in OVCAR-3, 24 hr, 100 nM” value [9] was 26700.

B2: v22277 (palivizumab) (antibody, human IgG1, kappa)
heavy 1: GQVTLRESGPALVKPTQTLTLTCTFSGFSLSTSGMSVGWIRQPPGKALEWLADIWWDDKKDYNPSLKSRLTISKDTSKNQVVLKVTNMDPADTATYYCARSMITNWYFDVWGAGTTVTVSSASTKGPSVFPLAPSSKSTSGGTAALGCLVKDYFPEPVTVSWNSGALTSGVHTFPAVLQSSGLYSLSSVVTVPSSSLGTQTYICNVNHKPSNTKVDKKVEPKSCDKTHTCPPCPAPELLGGPSVFLFPPKPKDTLMISRTPEVTCVVVDVSHEDPEVKFNWYVDGVEVHNAKTKPREEQYNSTYRVVSVLTVLHQDWLNGKEYKCKVSNKALPAPIEKTISKAKGQPREPQVYVYPPSRDELTKNQVSLTCLVKGFYPSDIAVEWESNGQPENNYKTTPPVLDSDGSFALVSKLTVDKSRWQQGNVFSCSVMHEALHNHYTQKSLSLSPG
heavy 2: not shown
light: GDIQMTQSPSTLSASVGDRVTITCKSQLSVGYMHWYQQKPGKAPKLLIYDTSKLASGVPSRFSGSGSGTEFTLTISSLQPDDFATYYCFQGSGYPFTFGGGTKLEIKRTVAAPSVFIFPPSDEQLKSGTASVVCLLNNFYPREAKVQWKVDNALQSGNSQESVTEQDSKDSTYSLSSTLTLSKADYEKHKVYACEVTHQGLSSPVTKSFNRGEC
In the case of B2, the “Internalized Fluorescence Fold-Over Palivizumab, IGROV-1, 4 hrs, 10 nM” value [10] is reported as 1 fold, the “Internalized Fluorescence Fold-Over Palivizumab, OVCAR-3, 4 hrs, 10 nM” value [10] is reported as 1 fold and the “Internalized Fluorescence Fold-Over Palivizumab, OVCAR-3, 24 hrs, 10 nM” value [10] is reported as 1 fold.

B3: v29456-MC-GGFG-AM-Compound 139 DAR 8 (antibody, human IgG1, kappa)
heavy: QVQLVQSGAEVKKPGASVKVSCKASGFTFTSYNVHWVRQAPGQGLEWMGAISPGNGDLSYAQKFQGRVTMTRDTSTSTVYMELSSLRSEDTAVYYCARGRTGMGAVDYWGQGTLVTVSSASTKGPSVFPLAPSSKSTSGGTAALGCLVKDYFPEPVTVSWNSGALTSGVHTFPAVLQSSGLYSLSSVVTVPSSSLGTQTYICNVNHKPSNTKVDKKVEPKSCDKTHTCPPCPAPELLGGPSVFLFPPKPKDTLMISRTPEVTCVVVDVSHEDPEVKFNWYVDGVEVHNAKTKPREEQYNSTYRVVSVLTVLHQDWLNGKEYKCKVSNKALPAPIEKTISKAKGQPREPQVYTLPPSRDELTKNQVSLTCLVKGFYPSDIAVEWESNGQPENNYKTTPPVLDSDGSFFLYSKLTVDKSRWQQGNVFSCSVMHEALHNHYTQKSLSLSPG
light: DVQMTQSPSSLSASVGDRVTITCRASQDVYSYLNWYQQKPGKAVKLLIYYTSRLQSGVPSRFSGSGSGTDYTLTISSLQPEDFATYYCQQYNIFPWTFGQGTKLEIKRTVAAPSVFIFPPSDEQLKSGTASVVCLLNNFYPREAKVQWKVDNALQSGNSQESVTEQDSKDSTYSLSSTLTLSKADYEKHKVYACEVTHQGLSSPVTKSFNRGEC
modifications: drug-linker MC-GGFG-AM-Compound 139 on cysteine thiols after TCEP reduction, positions not given; DAR 8.0 for the whole antibody
B3 was tested, and the “EC50, in vitro cytotoxicity, 2D monolayer, IGROV-1” value [11] was 0.39 nM, the “EC50, in vitro cytotoxicity, 2D monolayer, TOV-21G” value [11] was 4.3 nM and the “EC50, in vitro cytotoxicity, IGROV-1 spheroids” value [12] was 0.31 nM. The “EC50, in vitro cytotoxicity, TOV-21G:HDFa (1:1) spheroids” value [12] was 0.24 nM, the “EC50, in vitro cytotoxicity, H441 spheroids” value [13] was 1.57 nM and the “EC50, in vitro cytotoxicity, IGROV-1 spheroids” value [13] was 0.55 nM. The “EC50, in vitro cytotoxicity, TOV-21G spheroids” value [13] was 0.54 nM.

B4: v38591-MC-GGFG-AM-Compound 139 DAR 4 (antibody, human IgG1, kappa)
heavy: not shown
light: DVQMTQSPSSLSASVGDRVTITCRASQDVYSYLNWYQQKPGKAVKLLIYYTSRLQSGVPSRFSGSGSGTDYTLTISSLQPEDFATYYCQQYNIFPWTFGQGTKLEIKRTVAAPSVFIFPPSDEQLKSGTASVVCLLNNFYPREAKVQWKVDNALQSGNSQESVTEQDSKDSTYSLSSTLTLSKADYEKHKVYACEVTHQGLSSPVTKSFNRGEC
modifications: drug-linker MC-GGFG-AM-Compound 139 on cysteine thiols after TCEP reduction, positions not given; DAR 4 for the whole antibody
notes: Antibody-drug conjugate of v38591 (IgG1/kappa)
For B4, the Bmax [1] was 1260, the Kd (mouse NaPi2b [2]) was 1.49 nM and the Bmax (mouse NaPi2b [3]) was 538. The Bmax [4] was 22700, the Kd [4] was 1.7 nM and the Bmax [5] was 15500. It also gave a Kd [5] of 2.52 nM, a Kd (cynomolgus monkey NaPi2b [6]) of 0.36 nM and a Bmax (cynomolgus monkey NaPi2b [7]) of 459. It also gave a Bmax [8] of 1260.
